Laboratory results taken from US20230001007A1, “Glycan-Interacting Compounds and Methods of Use” (Seagen Inc., priority 2017, published 2023).

How the values were obtained:
[1] = test system: MDA-MB-231-STn cells; assay: Flow cytometry-based binding analysis; settings: 0 to 300 nM, read-out: MDA-MB-231-STn cell binding [EC50 (nM)]
Description: Humanized IgG1 antibodies, prepared as described above, were subjected to characterization analysis including flow cytometry-based binding analysis with MDA-MB-231-STn cells; binding analysis by BSM ELISA; and glycan array analysis.
In flow cytometry-based binding studies, antibodies were screened over a concentration range of 0 to 300 nM, comparing binding to MDA-MB-231 cells with or without transfection-induced STn expression. Binding was determined using an anti-human APC conjugated secondary antibody and only live cells were considered (based on propidium iodide negative gating). 5,000 events were collected per sample on average. Data were analyzed using FlowJo software (Asland, Oreg.) and resulting APC means and % APC were obtained. […] Human isotype IgG1 antibody was used as an isotype negative control. Epidermal growth factor receptor (LA22, EMD Millipore, Billerica, Mass.) was used as a positive control.

[2] = test system: array glycans (AcSTn, GcSTn, Tn and others); assay: Glycan array analysis; format: binding; parameters: key: Group 1: capable of binding AcSTn and GcSTn, if they bind to glycans 5, 6, 23 and 24; Group 2: capable of binding STn as well as some related structures that include an O-linkage to serine or threonine, if they bind to glycans 5, 6, 23, 24, 27 and 31; Group 3: capable of binding STn, but may also bind a broader set of related structures) if they bind glycans 5, 6, 23, 24, 17, 3, 19, 37, 27 and 31; Group 4: capable of binding to both AcSTn and GcSTn as well as the un-sialylated Tn antigen (therefore having broader specificity) if they bind to glycans 5, 6, 23, 24 and 47
Description: Optimized glycan arrays are utilized to test antibody affinity and specificity for multiple glycans in a single experiment. Glycan arrays include 71 chemically synthesized and well-defined glycans, most of which are Neu5Ac and Neu5Gc glycan pairs.
300 ml of epoxy blocking buffer is prepared by combining 15 ml of 2 M Tris buffer (pH 8) with 0.9 ml of 16.6 M ethanolamine and 284.1 ml of distilled water. The solution is brought to a final pH of 9.0 with HCl. The solution is filtered using a […] nitrocellulose membrane. The epoxy buffer solution as well as 1 L of distilled water are pre-warmed to 50° C. Glass slides are arranged in a slide holder and quickly submerged in a staining tub with the warmed epoxy blocking buffer. Slides are incubated in the epoxy blocking buffer for 1 hour at 50° C. with periodic shaking to deactivate epoxy binding sites. Next, slides are rinsed and blocked with PBS with 1% OVA at 25° C. for one hour. Serum samples with polyclonal antibodies (1:1000) or purified monoclonal antibodies (1 ug/mL), are diluted in PBS with 1% OVA and added to the glycan array for one hour at 25° C. After extensive washing, binding of antibodies are detected by incubating glycan microarray slides with Cy3-conjugated anti-mouse IgG (Jackson Immunoresearch, West Grove, Pa.) for one hour. Slides are then washed extensively, dried and scanned with a Genepix 4000B scanner (Laser at 100%; gain at 350; 10 μm pixels). Raw data from scanned images are extracted using the Genepix software and analysis of raw data is carried out.
Based on array analysis, antibodies are classified according to array glycan binding profile. Antibodies are classified as “Group 1” antibodies, capable of binding AcSTn and GcSTn, if they bind to glycans 5, 6, 23 and 24. Such antibodies are referred to as Pan-STn antibodies due to their ability to associate with a wider range of STn structures and the portion of STn indicated by the largest ellipse in FIG. 1A. […]

[3] = test system: Primary patient CRC samples; assay: STn expression in primary patient CRC samples by flow cytometry; format: cell-based; settings: % of viable CD45−/CD34− population
Text: Primary patient CRC samples were probed by flow cytometry with hSIA101 and two commercial antibodies B72.3 and CC49. All 10 samples tested were STn positive. In the table, % STn is expressed as % of viable CD45−/CD34− population. STn expression was often more robustly identified with hSIA101 than the commercial antibodies.

[4] = test system: normal human tissues; assay: Tissue cross-reactivity study, frozen tissue sections; format: binding; parameters: key to tissue staining: 1+=weak staining; 2+=moderate staining; 3+=strong staining; 4+=intense staining; Neg=negative; freq=frequent (staining in >75%-100% of cells); occ=occasional (staining in >25%-50% of cells); rare refers to staining in 1-5% of cells; settings: for tissue staining: Human, 1-3 μg/ml
Description: Tissue cross-reactivity studies were conducted to assess the binding profile (both on- and potential off-target binding) to human and relevant species used in nonclinical safety testing. Humanized anti-STn antibodies were examined for binding to a panel of normal human, rat, mouse, and cynomolgus monkey tissues. The study was conducted on […] normal frozen tissue sections at 1-3 μg/ml: heart, brain, kidney, stomach, lung, small intestines, colon, liver, pancreas, spleen and bone marrow. The positive control was a human pancreatic neoplasm that contained STn positive cancer cells and the negative control was normal stromal cells contained within the same specimen. Staining across all normal tissues was restricted to the cytoplasm. Additional analyses were conducted without primary antibody or using isotype control IgG as negative controls.
Antibodies were also found to cross react with similar types of tissue from Cynomolgus monkey (see Table 17) and rat (not shown).

B1: hSIA101 (antibody, V domains shown)
VH: EVQLVQSGAEVKKPGASVKVSCKASGYTFTDHAIHWVRQAPGQGLEWMGYFSPGNDDIKYNEKFRGRVTMTADKSSSTAYMELRSLRSDDTAVYFCKRSLSTPYWGQGTLVTVSS
VL: DIVMTQSPDSLAVSLGERATINCKSSQSLLNRGNHKNYLTWYQQKPGQPPKLLIYWASTRESGVPDRFSGSGSGTDFTLTISSLQAEDVAVYYCQNDYTYPYTFGQGTKVEIK
EC50 [1]: 2 nM | Array glycan binding profile [2]: Group 1 | % STn+ ([3]; Sample 160093-2, Colon): 22.9% | % STn+ ([3]; Sample 160101-2, Colon): 10% | % STn+ ([3]; Sample 160102-2, Colon): 12.9% | % STn+ ([3]; Sample 160104-2, Colon Met to Liver): 47.8% | % STn+ ([3]; Sample 160115-2, Colon): 5.4% | % STn+ ([3]; Sample 160127-2, Colon): 4.2% | % STn+ ([3]; Sample 160149-1, Colon): 22.7% | % STn+ ([3]; Sample 160151-1, Colon): 19.6% | % STn+ ([3]; Sample 169068-1, Colon): 10.9% | % STn+ ([3]; Sample 1601666, Colon): 29.4% | staining of cerebrum, cerebellum, kidney and liver [4]: did not stain | staining of positive control tissue (pancreatic neoplasm) [4]: strong membrane staining | tissue staining ([4]; Colon Epithelial Cells): 1+ freq (cytoplasm) | tissue staining ([4]; Colon Vessel): Neg | tissue staining ([4]; Heart Vessel): 2+ rare (cytoplasm) | tissue staining ([4]; Lung Epithelium): Neg | tissue staining ([4]; Pancreas Vessel): Neg | tissue staining ([4]; Small Intestine Epithelial Cells): 2-4+ freq (cytoplasm) | tissue staining ([4]; Spleen Vessel): 2-3+ freq (cytoplasm) | tissue staining ([4]; Stomach Epithelial Cells): 2-3+ freq (cytoplasm) | tissue staining ([4]; Stomach Vessel): Neg | cross-reactivity with normal human tissues ([4]; among the three tested antibodies): lowest cross-reactivity | staining on cell membranes in any tissue ([4]; normal tissues): No staining was observed
